This is an account of results in article PMC11849937, “Atractylenolide I inhibits angiogenesis and reverses sunitinib resistance in clear cell renal cell carcinoma through ATP6V0D2-mediated autophagic degradation of EPAS1/HIF2α” (Autophagy, 2024).

This assay concerns the target T1, His-VPS41 (recombinant, bacterial) (UniProt P49754 1-854).
T1 construct: VPS41; The only His-VPS41 plasmid that the methods name is in the vector pGMLV; source: BL21 (Rosetta) bacterial cells, purified (His beads)
T1 sequence (looked up): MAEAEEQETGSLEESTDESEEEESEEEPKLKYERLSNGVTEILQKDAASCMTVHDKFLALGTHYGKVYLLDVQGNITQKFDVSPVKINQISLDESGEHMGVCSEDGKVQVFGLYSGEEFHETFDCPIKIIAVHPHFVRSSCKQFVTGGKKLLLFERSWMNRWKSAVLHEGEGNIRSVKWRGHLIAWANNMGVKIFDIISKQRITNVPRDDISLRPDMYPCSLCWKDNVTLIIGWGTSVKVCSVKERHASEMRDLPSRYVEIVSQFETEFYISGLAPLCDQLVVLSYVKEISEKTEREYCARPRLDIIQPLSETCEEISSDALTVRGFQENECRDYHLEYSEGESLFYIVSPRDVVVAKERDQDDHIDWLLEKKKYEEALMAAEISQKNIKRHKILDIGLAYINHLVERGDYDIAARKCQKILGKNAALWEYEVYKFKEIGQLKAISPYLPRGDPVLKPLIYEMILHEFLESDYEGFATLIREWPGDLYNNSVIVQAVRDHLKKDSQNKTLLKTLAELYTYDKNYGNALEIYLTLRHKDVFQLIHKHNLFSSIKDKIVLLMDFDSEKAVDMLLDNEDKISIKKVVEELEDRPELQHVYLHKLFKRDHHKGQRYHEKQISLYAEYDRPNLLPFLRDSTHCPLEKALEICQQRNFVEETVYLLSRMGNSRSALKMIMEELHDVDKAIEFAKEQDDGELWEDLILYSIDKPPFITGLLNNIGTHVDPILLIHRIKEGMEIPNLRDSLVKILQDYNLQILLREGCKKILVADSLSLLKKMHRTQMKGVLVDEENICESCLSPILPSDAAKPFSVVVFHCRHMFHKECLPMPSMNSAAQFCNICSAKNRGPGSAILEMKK
The assay can be described thus: pull-down; GST-tagged protein (2.5 ug) immobilised on glutathione-Sepharose beads, incubated with His-RAB7, His-VPS41 or both in affinity-isolation buffer with PMSF; western blot. To be noted: both partners purified. Background: A western blot detects proteins with antibodies after separation by electrophoresis.

B1: GST-tagged ATP6V0D2 (natural protein)
chain: not shown
notes: ATP6V0D2, ATPase H+ transporting V0 subunit d2; Construct bought from Tsingke Biotechnology; also called GST-ATP6V0D2; source: BL21 (Rosetta) bacterial cells, purified (glutathione-Sepharose beads)
As for B1, the binding result is given as “binds”.
